Reference: patent US20180155451A1 (published 2018)

T1: FcγRIIa R (human, UniProt P12318 34-217)
T1 construct: extracellular domain; also called FcgRIIa R type; 2aR
T1 sequence (looked up): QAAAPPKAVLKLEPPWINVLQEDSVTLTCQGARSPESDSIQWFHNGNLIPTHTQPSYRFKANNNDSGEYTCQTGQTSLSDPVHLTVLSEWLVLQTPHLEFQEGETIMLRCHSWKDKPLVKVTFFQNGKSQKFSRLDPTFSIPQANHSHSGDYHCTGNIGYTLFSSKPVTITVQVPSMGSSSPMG


Target: T1, FcγRIIa R
Experiment: SPR Biacore; vs GpH7-A5/GpH7-B3/GpL16-k0 =100

He/Con_2aR	Binder
108 % of control	GpH7-A5/GpH7-B3 variant L234_20W/GpL16-k0 (antibody, human IgG1, kappa, also called He Ab L234_20W) heavy 1: not shown heavy 2: not shown light: DIVMTQSPLSLPVTPGEPASISCQASESLVHSNRNTYLHWYLQKPGQSPQLLIYKVSNRFSGVPDRFSGSGSGTDFTLKISRVEAEDVGVYYCSQNTHVPPTFGQGTKVEIERTVAAPSVFIFPPSDEQLKSGTASVVCLLNNFYPREAKVQWKVDNALQSGNSQESVTEQDSKDSTYSLSSTLTLSKADYEKHKVYACEVTHQGLSSPVTKSFNRGEC
106 % of control	GpH7-A5/GpH7-B3 variant K334_08L/GpL16-k0 (antibody, human IgG1, kappa, also called He Ab K334_08L) heavy 1: not shown heavy 2: not shown light: DIVMTQSPLSLPVTPGEPASISCQASESLVHSNRNTYLHWYLQKPGQSPQLLIYKVSNRFSGVPDRFSGSGSGTDFTLKISRVEAEDVGVYYCSQNTHVPPTFGQGTKVEIERTVAAPSVFIFPPSDEQLKSGTASVVCLLNNFYPREAKVQWKVDNALQSGNSQESVTEQDSKDSTYSLSSTLTLSKADYEKHKVYACEVTHQGLSSPVTKSFNRGEC
103 % of control	GpH7-A5/GpH7-B3 variant K334_05P/GpL16-k0 (antibody, human IgG1, kappa, also called He Ab K334_05P) heavy 1: not shown heavy 2: not shown light: DIVMTQSPLSLPVTPGEPASISCQASESLVHSNRNTYLHWYLQKPGQSPQLLIYKVSNRFSGVPDRFSGSGSGTDFTLKISRVEAEDVGVYYCSQNTHVPPTFGQGTKVEIERTVAAPSVFIFPPSDEQLKSGTASVVCLLNNFYPREAKVQWKVDNALQSGNSQESVTEQDSKDSTYSLSSTLTLSKADYEKHKVYACEVTHQGLSSPVTKSFNRGEC
110 % of control	GpH7-A5/GpH7-B3 variant K334_04F/GpL16-k0 (antibody, human IgG1, kappa, also called He Ab K334_04F) heavy 1: not shown heavy 2: not shown light: DIVMTQSPLSLPVTPGEPASISCQASESLVHSNRNTYLHWYLQKPGQSPQLLIYKVSNRFSGVPDRFSGSGSGTDFTLKISRVEAEDVGVYYCSQNTHVPPTFGQGTKVEIERTVAAPSVFIFPPSDEQLKSGTASVVCLLNNFYPREAKVQWKVDNALQSGNSQESVTEQDSKDSTYSLSSTLTLSKADYEKHKVYACEVTHQGLSSPVTKSFNRGEC
112 % of control	GpH7-A5/GpH7-B3 variant L234_10E/GpL16-k0 (antibody, human IgG1, kappa, also called He Ab L234_10E) heavy 1: not shown heavy 2: not shown light: DIVMTQSPLSLPVTPGEPASISCQASESLVHSNRNTYLHWYLQKPGQSPQLLIYKVSNRFSGVPDRFSGSGSGTDFTLKISRVEAEDVGVYYCSQNTHVPPTFGQGTKVEIERTVAAPSVFIFPPSDEQLKSGTASVVCLLNNFYPREAKVQWKVDNALQSGNSQESVTEQDSKDSTYSLSSTLTLSKADYEKHKVYACEVTHQGLSSPVTKSFNRGEC
129 % of control	GpH7-A5/GpH7-B3 variant L235_15Y/GpL16-k0 (antibody, human IgG1, kappa, also called He Ab L235_15Y) heavy 1: not shown heavy 2: not shown light: DIVMTQSPLSLPVTPGEPASISCQASESLVHSNRNTYLHWYLQKPGQSPQLLIYKVSNRFSGVPDRFSGSGSGTDFTLKISRVEAEDVGVYYCSQNTHVPPTFGQGTKVEIERTVAAPSVFIFPPSDEQLKSGTASVVCLLNNFYPREAKVQWKVDNALQSGNSQESVTEQDSKDSTYSLSSTLTLSKADYEKHKVYACEVTHQGLSSPVTKSFNRGEC
103 % of control	GpH7-A5/GpH7-B3 variant K326_12R/GpL16-k0 (antibody, human IgG1, kappa, also called He Ab K326_12R) heavy 1: not shown heavy 2: not shown light: DIVMTQSPLSLPVTPGEPASISCQASESLVHSNRNTYLHWYLQKPGQSPQLLIYKVSNRFSGVPDRFSGSGSGTDFTLKISRVEAEDVGVYYCSQNTHVPPTFGQGTKVEIERTVAAPSVFIFPPSDEQLKSGTASVVCLLNNFYPREAKVQWKVDNALQSGNSQESVTEQDSKDSTYSLSSTLTLSKADYEKHKVYACEVTHQGLSSPVTKSFNRGEC

Further lines, the binder ahead of its results:

Binder	He/Con_2aR
GpH7-A5/GpH7-B3 variant K326_08L/GpL16-k0 (antibody, human IgG1, kappa, also called He Ab K326_08L) heavy 1: not shown heavy 2: not shown light: DIVMTQSPLSLPVTPGEPASISCQASESLVHSNRNTYLHWYLQKPGQSPQLLIYKVSNRFSGVPDRFSGSGSGTDFTLKISRVEAEDVGVYYCSQNTHVPPTFGQGTKVEIERTVAAPSVFIFPPSDEQLKSGTASVVCLLNNFYPREAKVQWKVDNALQSGNSQESVTEQDSKDSTYSLSSTLTLSKADYEKHKVYACEVTHQGLSSPVTKSFNRGEC	137 % of control
GpH7-A5/GpH7-B3 variant L235_09D/GpL16-k0 (antibody, human IgG1, kappa, also called He Ab L235_09D) heavy 1: not shown heavy 2: not shown light: DIVMTQSPLSLPVTPGEPASISCQASESLVHSNRNTYLHWYLQKPGQSPQLLIYKVSNRFSGVPDRFSGSGSGTDFTLKISRVEAEDVGVYYCSQNTHVPPTFGQGTKVEIERTVAAPSVFIFPPSDEQLKSGTASVVCLLNNFYPREAKVQWKVDNALQSGNSQESVTEQDSKDSTYSLSSTLTLSKADYEKHKVYACEVTHQGLSSPVTKSFNRGEC	101 % of control
GpH7-A5/GpH7-B3 variant K334_13S/GpL16-k0 (antibody, human IgG1, kappa, also called He Ab K334_13S) heavy 1: not shown heavy 2: not shown light: DIVMTQSPLSLPVTPGEPASISCQASESLVHSNRNTYLHWYLQKPGQSPQLLIYKVSNRFSGVPDRFSGSGSGTDFTLKISRVEAEDVGVYYCSQNTHVPPTFGQGTKVEIERTVAAPSVFIFPPSDEQLKSGTASVVCLLNNFYPREAKVQWKVDNALQSGNSQESVTEQDSKDSTYSLSSTLTLSKADYEKHKVYACEVTHQGLSSPVTKSFNRGEC	109 % of control
GpH7-A5/GpH7-B3 variant L235_20W/GpL16-k0 (antibody, human IgG1, kappa, also called He Ab L235_20W) heavy 1: not shown heavy 2: not shown light: DIVMTQSPLSLPVTPGEPASISCQASESLVHSNRNTYLHWYLQKPGQSPQLLIYKVSNRFSGVPDRFSGSGSGTDFTLKISRVEAEDVGVYYCSQNTHVPPTFGQGTKVEIERTVAAPSVFIFPPSDEQLKSGTASVVCLLNNFYPREAKVQWKVDNALQSGNSQESVTEQDSKDSTYSLSSTLTLSKADYEKHKVYACEVTHQGLSSPVTKSFNRGEC	131 % of control
GpH7-A5/GpH7-B3 variant K334_19Q/GpL16-k0 (antibody, human IgG1, kappa, also called He Ab K334_19Q) heavy 1: not shown heavy 2: not shown light: DIVMTQSPLSLPVTPGEPASISCQASESLVHSNRNTYLHWYLQKPGQSPQLLIYKVSNRFSGVPDRFSGSGSGTDFTLKISRVEAEDVGVYYCSQNTHVPPTFGQGTKVEIERTVAAPSVFIFPPSDEQLKSGTASVVCLLNNFYPREAKVQWKVDNALQSGNSQESVTEQDSKDSTYSLSSTLTLSKADYEKHKVYACEVTHQGLSSPVTKSFNRGEC	109 % of control
GpH7-A5/GpH7-B3 variant K326_20W/GpL16-k0 (antibody, human IgG1, kappa, also called He Ab K326_20W) heavy 1: not shown heavy 2: not shown light: DIVMTQSPLSLPVTPGEPASISCQASESLVHSNRNTYLHWYLQKPGQSPQLLIYKVSNRFSGVPDRFSGSGSGTDFTLKISRVEAEDVGVYYCSQNTHVPPTFGQGTKVEIERTVAAPSVFIFPPSDEQLKSGTASVVCLLNNFYPREAKVQWKVDNALQSGNSQESVTEQDSKDSTYSLSSTLTLSKADYEKHKVYACEVTHQGLSSPVTKSFNRGEC	131 % of control
GpH7-A5/GpH7-B3 variant L234_09D/GpL16-k0 (antibody, human IgG1, kappa, also called He Ab L234_09D) heavy 1: not shown heavy 2: not shown light: DIVMTQSPLSLPVTPGEPASISCQASESLVHSNRNTYLHWYLQKPGQSPQLLIYKVSNRFSGVPDRFSGSGSGTDFTLKISRVEAEDVGVYYCSQNTHVPPTFGQGTKVEIERTVAAPSVFIFPPSDEQLKSGTASVVCLLNNFYPREAKVQWKVDNALQSGNSQESVTEQDSKDSTYSLSSTLTLSKADYEKHKVYACEVTHQGLSSPVTKSFNRGEC	122 % of control
GpH7-A5/GpH7-B3 variant K334_20W/GpL16-k0 (antibody, human IgG1, kappa, also called He Ab K334_20W) heavy 1: not shown heavy 2: not shown light: DIVMTQSPLSLPVTPGEPASISCQASESLVHSNRNTYLHWYLQKPGQSPQLLIYKVSNRFSGVPDRFSGSGSGTDFTLKISRVEAEDVGVYYCSQNTHVPPTFGQGTKVEIERTVAAPSVFIFPPSDEQLKSGTASVVCLLNNFYPREAKVQWKVDNALQSGNSQESVTEQDSKDSTYSLSSTLTLSKADYEKHKVYACEVTHQGLSSPVTKSFNRGEC	105 % of control
GpH7-A5/GpH7-B3 variant K326_18N/GpL16-k0 (antibody, human IgG1, kappa, also called He Ab K326_18N) heavy 1: not shown heavy 2: not shown light: DIVMTQSPLSLPVTPGEPASISCQASESLVHSNRNTYLHWYLQKPGQSPQLLIYKVSNRFSGVPDRFSGSGSGTDFTLKISRVEAEDVGVYYCSQNTHVPPTFGQGTKVEIERTVAAPSVFIFPPSDEQLKSGTASVVCLLNNFYPREAKVQWKVDNALQSGNSQESVTEQDSKDSTYSLSSTLTLSKADYEKHKVYACEVTHQGLSSPVTKSFNRGEC	115 % of control
GpH7-A5/GpH7-B3 variant K334_12R/GpL16-k0 (antibody, human IgG1, kappa, also called He Ab K334_12R) heavy 1: not shown heavy 2: not shown light: DIVMTQSPLSLPVTPGEPASISCQASESLVHSNRNTYLHWYLQKPGQSPQLLIYKVSNRFSGVPDRFSGSGSGTDFTLKISRVEAEDVGVYYCSQNTHVPPTFGQGTKVEIERTVAAPSVFIFPPSDEQLKSGTASVVCLLNNFYPREAKVQWKVDNALQSGNSQESVTEQDSKDSTYSLSSTLTLSKADYEKHKVYACEVTHQGLSSPVTKSFNRGEC	111 % of control
GpH7-A5/GpH7-B3 variant K334_10E/GpL16-k0 (antibody, human IgG1, kappa, also called He Ab K334_10E) heavy 1: not shown heavy 2: not shown light: DIVMTQSPLSLPVTPGEPASISCQASESLVHSNRNTYLHWYLQKPGQSPQLLIYKVSNRFSGVPDRFSGSGSGTDFTLKISRVEAEDVGVYYCSQNTHVPPTFGQGTKVEIERTVAAPSVFIFPPSDEQLKSGTASVVCLLNNFYPREAKVQWKVDNALQSGNSQESVTEQDSKDSTYSLSSTLTLSKADYEKHKVYACEVTHQGLSSPVTKSFNRGEC	106 % of control
GpH7-A5/GpH7-B3 variant K326_15Y/GpL16-k0 (antibody, human IgG1, kappa, also called He Ab K326_15Y) heavy 1: not shown heavy 2: not shown light: DIVMTQSPLSLPVTPGEPASISCQASESLVHSNRNTYLHWYLQKPGQSPQLLIYKVSNRFSGVPDRFSGSGSGTDFTLKISRVEAEDVGVYYCSQNTHVPPTFGQGTKVEIERTVAAPSVFIFPPSDEQLKSGTASVVCLLNNFYPREAKVQWKVDNALQSGNSQESVTEQDSKDSTYSLSSTLTLSKADYEKHKVYACEVTHQGLSSPVTKSFNRGEC	136 % of control
GpH7-A5/GpH7-B3 variant L235_04F/GpL16-k0 (antibody, human IgG1, kappa, also called He Ab L235_04F) heavy 1: not shown heavy 2: not shown light: DIVMTQSPLSLPVTPGEPASISCQASESLVHSNRNTYLHWYLQKPGQSPQLLIYKVSNRFSGVPDRFSGSGSGTDFTLKISRVEAEDVGVYYCSQNTHVPPTFGQGTKVEIERTVAAPSVFIFPPSDEQLKSGTASVVCLLNNFYPREAKVQWKVDNALQSGNSQESVTEQDSKDSTYSLSSTLTLSKADYEKHKVYACEVTHQGLSSPVTKSFNRGEC	114 % of control
GpH7-A5/GpH7-B3 variant K334_02A/GpL16-k0 (antibody, human IgG1, kappa, also called He Ab K334_02A) heavy 1: not shown heavy 2: not shown light: DIVMTQSPLSLPVTPGEPASISCQASESLVHSNRNTYLHWYLQKPGQSPQLLIYKVSNRFSGVPDRFSGSGSGTDFTLKISRVEAEDVGVYYCSQNTHVPPTFGQGTKVEIERTVAAPSVFIFPPSDEQLKSGTASVVCLLNNFYPREAKVQWKVDNALQSGNSQESVTEQDSKDSTYSLSSTLTLSKADYEKHKVYACEVTHQGLSSPVTKSFNRGEC	105 % of control
GpH7-A5/GpH7-B3 variant L234_04F/GpL16-k0 (antibody, human IgG1, kappa, also called He Ab L234_04F) heavy 1: not shown heavy 2: not shown light: DIVMTQSPLSLPVTPGEPASISCQASESLVHSNRNTYLHWYLQKPGQSPQLLIYKVSNRFSGVPDRFSGSGSGTDFTLKISRVEAEDVGVYYCSQNTHVPPTFGQGTKVEIERTVAAPSVFIFPPSDEQLKSGTASVVCLLNNFYPREAKVQWKVDNALQSGNSQESVTEQDSKDSTYSLSSTLTLSKADYEKHKVYACEVTHQGLSSPVTKSFNRGEC	104 % of control
